As a reminder, the stoichiometry N is a count of units in the complex or per binding partner. Usually Kd stands for the concentration at which binding is half-saturated.

In paper PMC9402713, “Structural analysis of Red1 as a conserved scaffold of the RNA-targeting MTREC/PAXT complex” (Nature Communications, 2022) one finds stoichiometry N, binding result and Kd data, which are given here for ten molecules.

Assay [1] deals with His-MBP-Red1 452-524 (S. pombe) (UniProt Q9UTR8). Put plainly: SEC-MALS; His-MBP-Red1 452-524, the dimer peak, injected at 9 mg/ml; stayed dimeric on reinjection. In general terms: In gel filtration, larger molecules generally elute earlier.
Assay [2] deals with Ars2 68-183,206-531 (S. pombe) (UniProt O94326). The assay can be described thus: SEC-MALS; Ars2 68-183,206-531, the dimer peak of the size exclusion chromatography.
In assay [3] the target is T1, His-GST-tagged human ARS2 147-871 (human, UniProt Q9BXP5 147-871).
T1 construct: ARS2 (SRRT), human, residues 147-871; vector pETM30; also called hARS2^147–871; His-GST-ARS2; source: E. coli BL21Star (DE3), purified (Ni^2+ chelating Sepharose)
T1 sequence (looked up): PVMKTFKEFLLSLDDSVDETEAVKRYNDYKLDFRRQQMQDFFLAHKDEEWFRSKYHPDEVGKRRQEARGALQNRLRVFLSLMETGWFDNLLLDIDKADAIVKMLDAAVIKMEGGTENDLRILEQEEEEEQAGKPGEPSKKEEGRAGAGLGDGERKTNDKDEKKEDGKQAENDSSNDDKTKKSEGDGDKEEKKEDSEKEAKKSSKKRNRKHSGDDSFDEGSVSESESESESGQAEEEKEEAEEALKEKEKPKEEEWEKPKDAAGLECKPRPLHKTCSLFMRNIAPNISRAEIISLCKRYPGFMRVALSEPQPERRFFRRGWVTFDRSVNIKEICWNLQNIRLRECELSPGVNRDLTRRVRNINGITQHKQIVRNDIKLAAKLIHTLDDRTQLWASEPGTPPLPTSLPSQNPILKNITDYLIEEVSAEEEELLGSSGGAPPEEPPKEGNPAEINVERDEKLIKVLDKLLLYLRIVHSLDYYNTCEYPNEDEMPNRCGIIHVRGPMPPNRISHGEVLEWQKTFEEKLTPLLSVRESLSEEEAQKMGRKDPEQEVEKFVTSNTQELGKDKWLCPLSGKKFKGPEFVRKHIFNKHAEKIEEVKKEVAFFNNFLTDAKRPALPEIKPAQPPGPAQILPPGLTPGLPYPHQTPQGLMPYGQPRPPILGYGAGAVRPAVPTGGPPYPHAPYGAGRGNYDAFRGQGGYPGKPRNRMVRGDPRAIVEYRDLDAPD
Put plainly: pull-down; MBP pull-down: Ni-purified His-MBP-peptide held on amylose resin, His-GST-ARS2 added; 20 mM Tris pH 8, 100 mM NaCl; eluted with 10 mM maltose. The following applies: both partners purified.

Assay [4] deals with T2, Strep-Ars2 107-527 (S. pombe, UniProt O94326 107-527).
T2 construct: vector pETM41; source: E. coli BL21Star (DE3), purified (Ni^2+ chelating Sepharose); not shown: Strep-tag, C-terminal, kept
T2 sequence (looked up): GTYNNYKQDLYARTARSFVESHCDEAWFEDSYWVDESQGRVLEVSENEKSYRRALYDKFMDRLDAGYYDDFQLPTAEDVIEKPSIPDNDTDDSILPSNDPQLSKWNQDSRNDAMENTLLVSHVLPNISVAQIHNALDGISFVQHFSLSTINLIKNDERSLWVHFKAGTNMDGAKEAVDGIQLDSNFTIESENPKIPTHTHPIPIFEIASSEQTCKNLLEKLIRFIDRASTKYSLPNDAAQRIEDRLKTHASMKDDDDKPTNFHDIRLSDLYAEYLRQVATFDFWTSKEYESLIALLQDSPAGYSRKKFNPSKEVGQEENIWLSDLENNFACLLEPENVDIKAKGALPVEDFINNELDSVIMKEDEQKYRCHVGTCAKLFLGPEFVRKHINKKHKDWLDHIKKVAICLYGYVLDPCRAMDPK
Put plainly: ITC; 25 °C, 0.4-0.8 mM Red1 injected into 30-40 µM Ars2, 20 mM Tris pH 8.0, 100 mM NaCl, one-site model. The settings on record: both partners purified.

The target in assay [5] is T3, full-length (FL) His-MBP-Ars2 (S. pombe, UniProt O94326 1-609).
T3 construct: Ars2, S. pombe, 609 residues; the tags are named on the protein for the gel filtration; also called FL Ars2; full-length Ars2; source: E. coli, expressed as MBP fusion, purified (amylose resin, Superdex 200)
T3 sequence (looked up): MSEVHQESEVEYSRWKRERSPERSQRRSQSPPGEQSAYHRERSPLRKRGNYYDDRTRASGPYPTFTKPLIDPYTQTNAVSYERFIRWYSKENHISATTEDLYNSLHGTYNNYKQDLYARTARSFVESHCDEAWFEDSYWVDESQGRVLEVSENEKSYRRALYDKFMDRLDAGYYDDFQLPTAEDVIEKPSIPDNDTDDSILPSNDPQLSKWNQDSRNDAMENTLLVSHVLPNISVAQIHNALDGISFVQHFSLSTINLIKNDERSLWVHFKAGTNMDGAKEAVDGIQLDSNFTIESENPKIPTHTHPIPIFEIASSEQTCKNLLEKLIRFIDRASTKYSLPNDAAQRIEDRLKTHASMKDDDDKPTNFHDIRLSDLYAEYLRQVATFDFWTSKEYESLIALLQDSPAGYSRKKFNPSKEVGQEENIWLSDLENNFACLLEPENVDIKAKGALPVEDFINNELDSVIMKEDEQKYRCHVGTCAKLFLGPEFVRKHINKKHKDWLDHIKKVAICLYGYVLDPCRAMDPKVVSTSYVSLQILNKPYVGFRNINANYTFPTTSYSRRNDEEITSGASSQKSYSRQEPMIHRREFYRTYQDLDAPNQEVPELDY
Put plainly: ITC; 25 °C, 0.4-0.8 mM Red1 injected into 30-40 µM Ars2, 20 mM Tris pH 8.0, 200 mM NaCl, one-site model. The settings on record: both partners purified. (Isothermal titration calorimetry measures the heat released or taken up as one component is titrated into another.)

The target in assay [6] is T2, Strep-Ars2 107-527. The assay is described as above. The following applies: both partners purified.
In assay [7] the target is T4, full-length (FL) His-MBP-Ars2 (S. pombe, UniProt O94326 1-609).
T4 chain: T3 sequence (looked up)
The assay can be described thus: ITC; 200 mM NaCl.

Assay [8] concerns the target full-length (FL) His-MBP-Ars2 (S. pombe) (UniProt O94326). The assay can be described thus: ITC; 25 °C, 0.4-0.8 mM Red1 injected into 30-40 µM Ars2, 20 mM Tris pH 8.0, 200 mM NaCl, one-site model.
For assay [9], the target named is Strep-Iss10 1-45 (S. pombe). Put plainly: SEC-MALS; co-purified Red1 192-236 / Iss10 1-45 complex on Superdex 200 10/300 GL, 4 °C, 20 mM Tris-HCl pH 8, 100 mM NaCl, 5 mM β-mercaptoethanol.
Another assay has as its target T5, Ars2 (58-609) (Schizosaccharomyces pombe).
T5 chain: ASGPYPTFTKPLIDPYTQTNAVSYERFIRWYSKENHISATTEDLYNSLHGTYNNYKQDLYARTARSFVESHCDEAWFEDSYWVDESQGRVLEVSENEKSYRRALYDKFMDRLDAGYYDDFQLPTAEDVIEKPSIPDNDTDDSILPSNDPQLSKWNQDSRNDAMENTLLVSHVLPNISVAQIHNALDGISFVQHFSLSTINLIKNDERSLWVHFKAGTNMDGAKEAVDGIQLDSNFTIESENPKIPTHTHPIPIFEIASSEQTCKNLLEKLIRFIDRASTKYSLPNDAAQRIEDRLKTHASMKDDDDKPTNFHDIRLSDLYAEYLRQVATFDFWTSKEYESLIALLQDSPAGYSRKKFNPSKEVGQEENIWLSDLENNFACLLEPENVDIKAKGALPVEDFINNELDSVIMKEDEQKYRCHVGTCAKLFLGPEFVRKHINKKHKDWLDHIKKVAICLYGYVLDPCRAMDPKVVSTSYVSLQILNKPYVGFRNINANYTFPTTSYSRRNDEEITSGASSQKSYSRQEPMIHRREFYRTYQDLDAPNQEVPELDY
Put plainly: ITC; 200 mM NaCl.

Where no end group is shown, it is not given here.

“His-MBP-Red1 452-524 (from UniProt Q9UTR8 452-524) (domain or fragment)” gave a stoichiometry N in [1] of 2.

“Ars2 68-183,206-531 (from UniProt O94326 68-183; O94326 206-531) (domain or fragment)”: the stoichiometry N in assay [2] was 2.

B1: His-MBP-tagged ZFC3H1 12-33 (domain or fragment, human, UniProt O60293 12-33, looked up)
chain: SGLSPKEEGELEDGEISDDDNN
notes: ZFC3H1, human, 1989 residues, residues 12-33 with the EDGEI motif; vector pETM41; also called MBP-ZFC3H1; hZFC3H1; source: E. coli BL21Star (DE3), purified (Ni^2+ chelating Sepharose)
For B1, in assay [3], the binding result is reported as “binds”.

B2: His-MBP-Red1 20-40 (domain or fragment, S. pombe)
chain: KNEEDESNDSDKEDGEISEDD
notes: Red1, S. pombe, residues 20-40 with the EDGEI motif; vector pETM41; also called MBP-Red1 EDGEI motif-containing peptide; source: E. coli BL21Star (DE3), purified (Ni^2+ chelating Sepharose or amylose resin, Superdex 200)
For the molecule B2, the Kd is 0.8 µM with Strep-Ars2 107-527 [4], ~5 µM in assay [5] and 5 µM with Strep-Ars2 107-527 [6]. Besides, in [3], the binding result was “binds”.

B3: His-MBP-Red1 1-54 (domain or fragment)
chain: MSRSINLDELRKKALESKKKNEEDESNDSDKEDGEISEDDPVIDQSNSVPPMKV
Take B3: the results for the Kd in assay [7] and in assay [8] were 5.6 µM and 5 µM, respectively.

B4: His-MBP-ZFC3H1 20-31 (domain or fragment, human, UniProt O60293 20-31, looked up)
chain: GELEDGEISDDD
notes: ZFC3H1, human, residues 20-31 (12 residues); source: E. coli BL21Star (DE3), purified (Ni^2+ chelating Sepharose)
With B4, the binding result in assay [3] is “binds”.

B5: Red1 192-236, His-MBP tag cleaved (domain or fragment)
chain: TTNQKEAEKAVSQLFEVGVRFNDFIAEGIEPSVVHTLFLKLGLDS
Molecule B5 showed a stoichiometry N in assay [9] of 1.

B6: Red1 peptide 20-40 (peptide)
peptide: KNEEDESNDSDKEDGEISEDD
modifications: not fully specified
The molecule B6 returned a Kd in the assay with Ars2 (58-609) of 4.4 µM.

B7: His-MBP-ZFC3H1 12-33 I27L (domain or fragment, human, UniProt O60293 12-33, looked up)
chain: SGLSPKEEGELEDGELSDDDNN
notes: ZFC3H1, human, residues 12-33; source: E. coli BL21Star (DE3), purified (Ni^2+ chelating Sepharose)
Consider B7, for which, in assay [3], the binding result was “binds”.

B8: Red1 peptide 20-40 (peptide)
peptide: KNEEDESNDSDKEDGEISEDD
notes: Red1, S. pombe, residues 20-40 with the EDGEI motif; also called Red1^20–40 peptide; Red1 N-terminal peptide; source: synthetic peptide (PSL GMBH)
In the case of B8, the equilibrium dissociation constant (Kd) in assay [5] is ~5 µM.
